According to patent publication US20250250357A1 (NANJING ZAIMING PHARMACEUTICAL, published 2025):
Like-named read-outs stand apart in the source and are kept apart here.

Assays:
[1] = target: T1, human MSLN-FL-his protein (human, UniProt Q13421 296-580); experiment: competitive ELISA; row Tab142
T1 construct: made in HEK293E cells, purified on nickel column; also called hMSLN-FL-his; human MSLN full-length protein; not shown: His tag
T1 sequence (Q13421 other isoform, or with tags, fused parts or gaps): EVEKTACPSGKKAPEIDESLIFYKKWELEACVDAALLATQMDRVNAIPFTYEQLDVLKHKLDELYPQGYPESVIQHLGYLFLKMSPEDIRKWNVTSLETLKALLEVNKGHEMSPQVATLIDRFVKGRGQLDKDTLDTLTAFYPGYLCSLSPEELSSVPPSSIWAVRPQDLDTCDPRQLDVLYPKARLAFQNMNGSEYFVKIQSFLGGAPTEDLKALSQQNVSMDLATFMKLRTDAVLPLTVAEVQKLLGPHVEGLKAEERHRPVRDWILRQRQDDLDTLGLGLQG

[2] = target: T1, human MSLN-FL-his protein; experiment: SPR (Biacore), antibody captured on Protein A chip;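 note: flow cell at 25 °C, antigen injected for 240 s at five concentrations from 200 nM downward, dissociation followed up to 600 s, double-referenced, fitted with Langmuir 1:1 model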
[3] = target: T1, human MSLN-FL-his protein; experiment: competitive ELISA; row F7.2.3
[4] = target: T1, human MSLN-FL-his protein; experiment: competitive ELISA; row F7.18.10
[5] = target: T1, human MSLN-FL-his protein; experiment: competitive ELISA; row Tab021
[6] = target: T2, human MSLN-R2-his protein (human, UniProt Q13421 391-486); experiment: ELISA; antibody 10 nM
T2 construct: also called hMSLN-R2-his; not shown: His tag
T2 sequence (Q13421 other isoform, or with tags, fused parts or gaps): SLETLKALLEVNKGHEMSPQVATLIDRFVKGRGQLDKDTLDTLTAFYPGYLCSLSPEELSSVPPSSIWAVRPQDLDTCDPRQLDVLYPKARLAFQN

[7] = target: T2, human MSLN-R2-his protein; experiment: ELISA; antibody 0.1 nM
[8] = target: T2, human MSLN-R2-his protein; experiment: ELISA; antibody 1 nM
[9] = target: T3, human MSLN-R3-his protein (human, UniProt Q13421 487-598); experiment: ELISA; antibody 1 nM
T3 construct: also called hMSLN-R3-his; not shown: His tag
T3 sequence (Q13421 495-606): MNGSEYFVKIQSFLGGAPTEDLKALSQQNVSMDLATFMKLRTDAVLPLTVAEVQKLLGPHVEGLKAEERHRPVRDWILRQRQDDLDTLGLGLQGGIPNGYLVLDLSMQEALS

[10] = target: T3, human MSLN-R3-his protein; experiment: ELISA; antibody 0.01 nM
[11] = target: T3, human MSLN-R3-his protein; experiment: ELISA; antibody 10 nM
[12] = target: T3, human MSLN-R3-his protein; experiment: ELISA; antibody 1 nM; remark: listed apart in the source
[13] = target: T2, human MSLN-R2-his protein; experiment: ELISA; antibody 1 nM; remark: listed apart in the source
[14] = target: T2, human MSLN-R2-his protein; experiment: ELISA; antibody 0 nM (blank)
[15] = target: T3, human MSLN-R3-his protein; experiment: ELISA; antibody 0.0001 nM
[16] = target: T3, human MSLN-R3-his protein; experiment: ELISA; antibody 100 nM
[17] = target: T3, human MSLN-R3-his protein; experiment: ELISA; antibody 0 nM (blank)
[18] = target: T2, human MSLN-R2-his protein; experiment: ELISA; antibody 0.0001 nM
[19] = target: T2, human MSLN-R2-his protein; experiment: ELISA; antibody 100 nM
[20] = target: T2, human MSLN-R2-his protein; experiment: ELISA; antibody 0.001 nM
[21] = target: T3, human MSLN-R3-his protein; experiment: ELISA; antibody 0.001 nM
[22] = target: T3, human MSLN-R3-his protein; experiment: ELISA; antibody 0.1 nM
[23] = target: T2, human MSLN-R2-his protein; experiment: ELISA; antibody 0.01 nM
[24] = target: T4, human MSLN-R3 on HEK293T-hMSLN-R3 recombinant cells (human, UniProt Q13421 487-606); experiment: FACS, HEK293T-hMSLN-R3 cells
T4 construct: the C-terminal limit is uncertain; also called human MSLN-R3 membrane protein
T4 sequence (Q13421 495-614): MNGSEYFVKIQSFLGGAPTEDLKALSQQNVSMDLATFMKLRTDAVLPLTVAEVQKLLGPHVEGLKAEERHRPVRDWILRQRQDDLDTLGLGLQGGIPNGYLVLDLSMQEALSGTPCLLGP

[25] = target: T5, human MSLN-R3 protein (human, UniProt Q13421 487-598); experiment: ELISA, MSLN-R3 coated, antibody 0.01 nM
T5 construct: also called hMSLN-R3
T5 sequence (Q13421 495-606): as the sequence (Q13421 495-606) above

[26] = target: T5, human MSLN-R3 protein; experiment: ELISA, MSLN-R3 coated, antibody 100 nM
[27] = target: T5, human MSLN-R3 protein; experiment: ELISA, MSLN-R3 coated, antibody 1 nM
[28] = target: T5, human MSLN-R3 protein; experiment: ELISA, MSLN-R3 coated, antibody 0.0001 nM
[29] = target: T5, human MSLN-R3 protein; experiment: ELISA, MSLN-R3 coated, antibody 0.001 nM
[30] = target: T5, human MSLN-R3 protein; experiment: ELISA, MSLN-R3 coated, antibody 0.1 nM
[31] = target: T5, human MSLN-R3 protein; experiment: ELISA, MSLN-R3 coated, antibody 10 nM
[32] = target: T4, human MSLN-R3 on HEK293T-hMSLN-R3 …; experiment: FACS, HEK293T-hMSLN-R3 cells; remark: listed apart in the source
[33] = target: T4, human MSLN-R3 on HEK293T-hMSLN-R3 …; experiment: FACS, HEK293T-hMSLN-R3 cells; remark: listed apart in the source
[34] = target: T4, human MSLN-R3 on HEK293T-hMSLN-R3 …; experiment: FACS, HEK293T-hMSLN-R3 cells; remark: listed apart in the source
[35] = target: T4, human MSLN-R3 on HEK293T-hMSLN-R3 …; experiment: FACS, HEK293T-hMSLN-R3 cells; remark: listed apart in the source
[36] = target: T6, monkey MSLN on HEK293T-monkey MSLN recombinant cells (monkey); experiment: FACS, HEK293T-monkey MSLN cells
T6 construct: Full-length precursor as transfected; processing on the cell is not described; also called HEK293-monkey MSLN
T6 chain: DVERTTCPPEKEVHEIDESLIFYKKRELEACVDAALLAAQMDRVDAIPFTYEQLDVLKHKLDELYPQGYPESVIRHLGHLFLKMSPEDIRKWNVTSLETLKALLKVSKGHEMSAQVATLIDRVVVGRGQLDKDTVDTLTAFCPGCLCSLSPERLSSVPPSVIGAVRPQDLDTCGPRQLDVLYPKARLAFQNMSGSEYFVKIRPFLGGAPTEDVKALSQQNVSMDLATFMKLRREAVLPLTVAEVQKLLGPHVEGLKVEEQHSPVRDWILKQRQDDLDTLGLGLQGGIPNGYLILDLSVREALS

[37] = target: human MSLN on OVCAR3 tumor cells (human, UniProt Q13421 296-598); experiment: FACS, OVCAR3 cells
Chain of human MSLN on OVCAR3 tumor cells (Q13421 other isoform, or with tags, fused parts or gaps): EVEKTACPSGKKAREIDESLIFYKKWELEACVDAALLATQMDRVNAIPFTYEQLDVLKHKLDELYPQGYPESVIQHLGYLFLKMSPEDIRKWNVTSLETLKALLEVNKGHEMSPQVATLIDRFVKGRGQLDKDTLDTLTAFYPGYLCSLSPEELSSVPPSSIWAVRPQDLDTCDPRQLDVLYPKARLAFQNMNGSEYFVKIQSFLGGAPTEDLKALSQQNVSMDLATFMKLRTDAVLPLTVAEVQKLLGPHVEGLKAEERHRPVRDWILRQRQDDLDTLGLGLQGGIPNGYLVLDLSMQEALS

[38] = target: T7, human MSLN-FL-his protein (human, UniProt Q13421 296-580); experiment: SPR (Biacore), antibody captured on Protein A, MSLN-FL-his injected
T7 construct: also called hMSLN-FL-his; human MSLN full-length protein

B1: S009-F7.2.3 (antibody, human IgG1, kappa, V domains shown)
VH: ELQLVESGGDLVKPGGSLKLSCAASGFTFSSNGMSWLRQTPDKRLEWVATISSGGRYTYYPDSVKGRFTISRDNAKNTLYLQMSSLKSEDTAMYYCARRGIYDYFDCWGQGTTLTVSS
VL: DIQMTQSPASLSISVGETVTITCRASENIHSSLAWYQQKQGKSPQLLVYAATNLADGVPSRFSGSGSGSQYSLKINSLQSEDFGTYYCQHFWGTPWTFGGGTKLDIKR
notes: human-murine chimeric antibody, human IgG1/kappa constant regions
For B1, the competition rate [1] was 3.48%, the Kd [2] was 13.2 nM and the koff [2] was 0.00851 s⁻¹. For the same binder, the kon [2] was 643000 M⁻¹ s⁻¹, the competition rate [3] was 93.3% and the competition rate [4] was 54.1%. It also gave a competition rate [5] of -3.83%.

B2: S009-F7.18.10 (antibody, human IgG1, kappa, V domains shown)
VH: QVQLQQSGAELVRPGTSVKVSCKASGYAFTNYLIEWVKQRPGQGLEWIGVINPGSGGTKYNEKFKGKATLTADKSSSTAYMQLSSLTSEDSAVYFCASDYDYDPFAYWGQGTLVTVSA
VL: DIVMTQSHKFMSTSVGDRVSITCKASQDVSTAVAWYQRKPGQSPKLLIYWASTRHTGVPDRFTGSGSGTDYTLTISYMQAEDLALYYCQQHYSTPYTFGGGTKLEIKR
notes: as for B1
With B2 the competition rate [1] was 94.4%, the Kd [2] was 0.64 nM and the koff [2] was 0.00117 s⁻¹. For the same binder, the kon [2] was 1.83e+06 M⁻¹ s⁻¹, the competition rate [3] was -29.4% and the competition rate [4] was 97%. The competition rate [5] was 9.2%.

B3: Tab106 (YP218, hIgG1) (antibody, V domains shown)
VH: QQQLEESGGGLVKPEGSLTLTCKASGFDLGFYFYACWVRQAPGKGLEWIACIYTAGSGSTYYASWAKGRFTISKASSTTVTLQMTSLAAADTATYFCARSTANTRSTYYLNLWGPGTLVTVSS
VL: DVVMTQTPASVSEPVGGTVTIKCQASQRISSYLSWYQQKPGQRPKLLIFGASTLASGVPSRFKGSGSGTEYTLTISDLECADAATYYCQSYAYFDSNNWHAFGGGTEVVVRT
notes: Control antibody; VH and VL recombined into human IgG1 CH and CL expression vectors; also called YP218 human IgG1 antibody; anti-human MSLN-R3 antibody
B3 gave an OD450 nm [6] of 0.11, an OD450 nm [7] of 0.05 and an OD450 nm [8] of 0.05. The OD450 nm [9] was 0.62, the OD450 nm [10] was 0.06 and the OD450 nm [11] was 1.75. For the same binder, the OD450 nm [12] was 0.62, the OD450 nm [13] was 0.05 and the OD450 nm [14] was 0.05. The OD450 nm [15] was 0.05, the OD450 nm [16] was 2.29 and the OD450 nm [17] was 0.05. For the same binder, the OD450 nm [18] was 0.04, the OD450 nm [19] was 0.7 and the OD450 nm [20] was 0.04. It also gave an OD450 nm [21] of 0.05, an OD450 nm [22] of 0.12 and an OD450 nm [23] of 0.04.

B4: F3.38.10-L2H3a (scFv, not shown: small tags and cut ends)
scFv: DIVMTQSPDSLAVSLGERATINCRSSQSLIHSDGNTYLQWYQQKPGQSPKLLIYKVSNRFSGVPDRFSGSGSGTDFTLTISSLQAEDVAVYYCSQTTHVPFTFGQGTKLEIKGGGGSGGGGSGGGGSEVQLVQSGAEVKKPGASVKVSCKASGYIFTDYYMNWVRQAPGQRLEWMGVINPKQGVISHNQKFKGRVTITVDKSANTAYMELSSLRSEDTAVYYCANYGSRFYAMDYWGQGTTVTVSS
notes: also called S009-F3.38.10 humanized antibody VL2 + VH3a
B4 was tested, and the EC50 [24] was 166 nM, the Maximum_MFI [24] was 795 MFI and the OD450 nm [25] was 0.05 OD. The OD450 nm [26] was 1.88 OD, the OD450 nm [27] was 0.12 OD and the OD450 nm [28] was 0.05 OD. For the same binder, the OD450 nm [29] was 0.05 OD, the OD450 nm [30] was 0.06 OD and the OD450 nm [31] was 0.72 OD.

B5: Tab111 (scFv, not shown: small tags and cut ends)
scFv: DVVMTQTPASVSEPVGGTVTIKCQASQRISSYLSWYQQKPGQRPKLLIFGASTLASGVPSRFKGSGSGTEYTLTISDLECADAATYYCQSYAYFDSNNWHAFGGGTEVVVGGGGSGGGGSGGGGSQQQLEESGGGLVKPEGSLTLTCKASGFDLGFYFYACWVRQAPGKGLEWIACIYTAGSGSTYYASWAKGRFTISKASSTTVTLQMTSLAAADTATYFCARSTANTRSTYYLNLWGPGTLVTVSS
notes: also called YP218 VL-(G4S)3-VH-his antibody; positive control
For B5, the EC50 [24] was 30.2 nM, the Maximum_MFI [24] was 777 MFI and the EC50 [32] was 0.76 nM. It also gave a Maximum_MFI [32] of 2120 MFI, an EC50 [33] of 1.6 nM and a Maximum_MFI [33] of 3070 MFI. It also gave an OD450 nm [25] of 0.05 OD, an OD450 nm [26] of 1.89 OD and an OD450 nm [27] of 0.25 OD. For the same binder, the OD450 nm [28] was 0.05 OD, the EC50 [34] was 0.76 nM and the Maximum_MFI [34] was 2120 MFI. It also gave an EC50 [35] of 1.22 nM, a Maximum_MFI [35] of 4970 MFI and an OD450 nm [29] of 0.05 OD. For the same binder, the OD450 nm [30] was 0.07 OD and the OD450 nm [31] was 1.05 OD.

B6: F7.33.24 (scFv)
chain: QVQLQQPGTELVKPGASVKLSCKASGYTFTSYWMHWVKQRPGQGLEWIGNVNPSNGGSNYNEKFKNKATLTVDKSSSTADMQLNSLTSEDSAVYYCAPHYIGSRPGFAYWGQGTLVTVSGGGGGSGGGGSGGGGSDIVMTQSQKFMSTSVGDRVSVTCKASQNVGTNIAWYQQKPGQSPKALIYSASYRYSGVPDRFTGSGSGTDFTLTITNVQSEDLAEYFCQQYNSYPLTFGGGTKVEIK
B6 was tested, and the EC50 [32] was 1.63 nM, the Maximum_MFI [32] was 1490 MFI and the EC50 [36] was 7.97 nM. The Maximum_MFI [36] was 8910 MFI, the EC50 [37] was 4.75 nM and the Maximum_MFI [37] was 2260 MFI.

B7: S009-F3.7.3 (antibody, human IgG1, kappa, V domains shown)
VH: EVNFEESGGGLVQPGGSMKLSCVASGFTFSNYWMNWVRQSPEKGLEWVAQIRLKSDNYATHYAESVKGRFTISRDDFKSSVYLQMNNLRAEDTGIYYCTVGTGGYWGQGTTLTVSS
VL: DIVLTQSPASLAMSLGKRATISCRASESVSIVGTNVIHWFQQKPGQPPKLLIYHASNLETGVPARFSGSGSGTDFTLTIDPVEEDDVAIYHCLQSRKIPWTFGGGTKLEIKR
notes: chimeric, human IgG1/kappa
B7: no binding [38].
